Each block holds one binder with its values, some of them ahead of it. [ ]: non-standard residue; d: D form. pGlu = O=C1CC[C@@H](C(=O)O)N1
Assays:
[1] = target: Ggly receptor on IMGE-5 cells; experiment: cell-based or functional assay
human CCK-2 receptor [2] = target: T1, human CCK-2 receptor (human, UniProt P32239 1-447); experiment: cell-based or functional assay
T1 sequence (looked up): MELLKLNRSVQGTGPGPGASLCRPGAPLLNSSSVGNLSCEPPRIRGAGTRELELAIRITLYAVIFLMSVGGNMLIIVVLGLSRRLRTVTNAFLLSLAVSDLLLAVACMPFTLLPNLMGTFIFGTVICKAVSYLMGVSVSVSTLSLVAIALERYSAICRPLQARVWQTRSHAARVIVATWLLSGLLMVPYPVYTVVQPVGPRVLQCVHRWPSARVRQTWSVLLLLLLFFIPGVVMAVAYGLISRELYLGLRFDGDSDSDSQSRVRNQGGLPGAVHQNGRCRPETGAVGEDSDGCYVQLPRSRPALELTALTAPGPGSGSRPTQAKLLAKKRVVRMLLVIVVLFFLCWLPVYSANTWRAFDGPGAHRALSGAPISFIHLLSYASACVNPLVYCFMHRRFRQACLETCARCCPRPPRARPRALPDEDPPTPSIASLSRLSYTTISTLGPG

human CCK-2 receptor [3] = target: T1, human CCK-2 receptor; experiment: fitted [125I]-BH-CCK8 binding without competitor, displacement curve, Jurkat cells
Description: (§1) Non-specific binding was evaluated with […] of unlabelled CCK₈. Incubation was stopped by adding 2 ml of ice-cold PBS containing 2% bovine serum albumin. After centrifugation, supernatants were removed and the radioactivity bound to the cell membranes was measured in a γ-counter (LKB, Wallac, Finland).
(§2) Values of the % maximum binding in the absence of competitor and of the IC₅₀ were obtained from the data presented in FIG. 21 by least squares fitting with the program Sigmaplot. Values from the indicated number of independent experiments were combined to obtain the mean values (±S.E.) presented above. Data were analyzed by one-way analysis of variance.

human CCK-2 receptor [4] = target: T1, human CCK-2 receptor; experiment: fitted [125I]-BH-CCK8 binding without competitor, displacement curve, CCK-2 receptor on transfected COS-7 cells
Description: as §2

human CCK-2 receptor [5] = target: T1, human CCK-2 receptor; experiment: displacement of [125I]-BH-CCK8, Jurkat cells; reference Gamide
human CCK-2 receptor [6] = target: T1, human CCK-2 receptor; experiment: displacement of [125I]-BH-CCK8, CCK-2 receptor on Jurkat cells
Description: as §1, §2

human CCK-2 receptor [7] = target: T1, human CCK-2 receptor; experiment: displacement of [125I]-BH-CCK8, transfected COS-7 cells; reference Gamide
human CCK-2 receptor [8] = target: T1, human CCK-2 receptor; experiment: single experiment of FIG. 21, displacement of [125I]-BH-CCK8, transfected COS-7 cells
Excerpt: The lines of best fit shown in FIG. 21 were obtained by nonlinear regression to a single site model with the program Sigmaplot.

human CCK-2 receptor [9] = target: T1, human CCK-2 receptor; experiment: displacement of [125I]-BH-CCK8, CCK-2 receptor on transiently transfected COS-7 cells
Description: as §2

Binder: EEEEEAY [heptapeptide E5AY]
ED50 (nM), proliferation of IMGE cells, thymidine uptake [1]: 1.1 nM

B1: amidated gastrin17 (Gamide) (peptide)
peptide: XGPWLEEEEEAYGWMDF
modifications: N-terminal pyroglutamate (Z); C-terminal phenylalanine amide
notes: Synthetic peptide bought from Bachem; Also tested with 1 uM DFO or with 8 moles Bi3+ per mole; also called G17
inositol phosphate turnover (human CCK-2 receptor [2]): 4 fold | % Maximum Binding (human CCK-2 receptor [3]): 100% | % Maximum Binding (human CCK-2 receptor [4]): 94.2%

B2: GamideE7A (peptide)
peptide: [pGlu]GPWLEAEEEAYGWMDF-NH2
modifications: ends and bridges not checked
notes: Gamide mutant with Glu7 replaced by Ala; Synthesised by Auspep
ratio IC50 GamideE7A/IC50 Gamide (human CCK-2 receptor [5]): 2.4 | IC50 (human CCK-2 receptor [6]): 3.1 nM | ratio IC50 GamideE7A/IC50 Gamide (human CCK-2 receptor [7]): 1.4 | IC50 (human CCK-2 receptor [8]): 25.1 nM | % Maximum Binding (human CCK-2 receptor [3]): 96.7% | IC50 (human CCK-2 receptor [9]): 37 nM | % Maximum Binding (human CCK-2 receptor [4]): 92%

B3: GamideE8,9A (peptide)
peptide: [pGlu]GPWLEEAAEAYGWMDF-NH2
modifications: ends and bridges not checked
notes: Gamide mutant with Glu8 and Glu9 replaced by Ala; Synthesised by Auspep
ratio IC50 GamideE8,9A/IC50 Gamide (human CCK-2 receptor [5]): 2.2 | IC50 (human CCK-2 receptor [6]): 2.8 nM | ratio IC50 GamideE8,9A/IC50 Gamide (human CCK-2 receptor [7]): 4.1 | IC50 (human CCK-2 receptor [8]): 58.2 nM | % Maximum Binding (human CCK-2 receptor [3]): 97.8% | IC50 (human CCK-2 receptor [9]): 112 nM | % Maximum Binding (human CCK-2 receptor [4]): 98.4%

Now from value to binder:

ED50 (nM), proliferation of IMGE cells, thymidine uptake [1]: 0.5 nM
Binder: EEEEEA [hexapeptide E5A]

ED50 (nM), proliferation of IMGE cells, thymidine uptake [1]: 1 nM
Binder: LEEEEEAYG [nonapeptide LE5AYG]

ED50 (nM), proliferation of IMGE cells, thymidine uptake [1]: 2.4 nM
Binder: LEEEEEA [heptapeptide LE5A]

ED50 (nM), proliferation of IMGE cells, thymidine uptake [1]: 0.9 nM
Binder: LEEEEE [hexapeptide LE5]

Reference: US20070031511A1 (published 2007)
